Molecular target: MGAT1 (GnT1) (UniProt P26572)
Experiment: co-immunoprecipitation, western blot
Conditions: reference: wild type, mitotic; sites S12

- binding against the reference: stronger
Substance: MAN1A1 (Golgi α-1,2-mannosidase IA) (from UniProt P33908) S12A, mitotic
